Data published in paper PMC3172256.

Target: CD16.7-PC1-WT (human) (UniProt P08637)
Experiment: co-IP

Substance	fold coprecipitation above the background of untransfected cell lysates [fold]
Rab11, human, endogenous (from UniProt P62491 1-216) (natural protein)	1.3
Rab8, human, endogenous (from UniProt P61006 1-207) (natural protein)	2
